Assay results: patent US4133804A, “Polypeptide possessing thymic activity” (Institut National de la Sante et de la Recherche Medicale …, priority 1976, dated 1979)
In brackets after ≈: the same amount, converted by molar mass. Non-standard residues stand in square brackets, D forms with d. No end group written: not given here. pGlu = O=C1CC[C@@H](C(=O)O)N1

Tests used:
[1] = tested on: spleen rosette forming cells (RFC); assay: cells; conditions: Mus musculus, read-out: AZ minimal concentration inhibiting 50 percent spleen rosette forming cells
Description: At the end of the incubation, 12 × 10^6 sheep red blood cells (SRBC) are added to the cells in the test sample. The cells in the sample are centrifuged for 6 minutes at 200 g. and carefully and gently resuspended by rotation on a roller (10 cm. diameter) at low speed (10 rev./min.). RFC are counted in a haematocytometer. In the absence of thymic activity, the number of RFC is 1210/10^6 cells ± 120 (standard deviation, SD). In the presence of thymic activity, the RFC level is lowered to 200 to 400/10^6 cells.

isoelectric point = type: physicochemical; conditions: given as pH
Source text: The polypeptide hormone of this invention has an isoelectric point (pI) at pH 7.5 ± 0.1. Lack of affinity to activated charcoal indicates the absence of aromatic amino acids. Elution of the polypeptide with the void volume when chromatographed on Sephadex G-10 and retention on Sephadex G-15, G-25 and G-50 indicates a molecular weight greater than 700 and less than 3,000. Ultrafiltration through Amicon membranes indicates a molecular weight of […] to 10,000. No significant retention of the polypeptide is observed on CF-50, PM-30 and PM-10 membranes which have molecular cut-offs of 50,000; 30,000 and 10,000 respectively. Conversely no significant activity is found in UM2 and UM0.5 filtrates which have molecular weight cut-offs of 1,000 and 500 respectively. The polypeptide has the property that it binds to carboxymethyl cellulose at pH lower than 7.0 and to DEAE cellulose at a pH higher than 9.0. The polypeptide bound on carboxymethyl cellulose can be eluted with 0.12M NaCl.

Compound | IC50 [1] [µg/mL] | isoelectric point (pI) (isoelectric point) | isoelectric point (pI) (isoelectric point; listed as thymic factor)
Cn1cnc([N+](=O)[O-])c1Sc1ncnc2nc[nH]c12 [AZ, azathioprine] | 1 (≈ 3.61 µM) |  | 
pyroglutamyl-Ala-Lys-Ser-Gln-Gly-Gly-Ser-Asn ([pGlu]AKSQGGSN) [polypeptide hormone, polypeptide hormone isolated from porcine blood] |  | 7.5 ± 0.1 | ~7.5
